The values below come from patent publication US12163955B2, “Antibodies to methotrexate and uses thereof” (Ark Diagnostics, Inc., priority 2023, dated 2024).

Where “and” joins values, the source holds several entries; their conditions need not be identical. Equal entries are not always repeated.

Test [1] has as its system MTX antibodies. Description: Specificity in absence of MTX, cross-reactivity (MTX Assay). Format: binding, rabbit. To be noted: no MTX. The text has this:
“Cross-reactivity” refers to the reaction of an antibody with an antigen that was not used to induce that antibody. “Cross-reactivity” may be determined in a quantitative immunoassay by establishing a standard curve using known dilutions of the target analyte. The standard curve is then used to calculate the apparent concentration of the interfering substance present in various known amounts in samples assayed under similar condition. The cross-reactivity is the apparent concentration divided by the actual concentration multiplied by 100.
[…] Solvent controls were also prepared and tested.
Cross-reactivity with DAMPA was also tested DAMPA stock solution was spiked into negative serum pool without the presence of MTX.

Test [2] deals with MTX antibodies. Described as above. To be noted: Trimethoprim 150 μmol/L, Triamterene 25 μmol/L; for % Cross-reactivity: no MTX. Type of test: binding, rabbit.
Test [3] is described as follows: Homogeneous enzyme immunoassay calibration curves with antibody clones and DAMP-Y-S-G6PDH conjugate. The conditions noted are these: antibody 200.0 μL/g. Type of test: biochemical. As to the method:
MTX antibodies and enzyme conjugates may be advantageously used in accordance with the present disclosure in a homogeneous assay format to detect a MTX analyte in samples. Antibodies may be evaluated by known methods, such as, conjugate inhibition, conjugate modulation, calibration, cross-reactivity and spike-recovery. For these purposes, cloned antibodies (28H3-K1, 32H1-K2, 64H1-K1) is added into the antibody diluent to prepare the antibody reagent. The antibody reagent includes antibody as prepared above, buffer, salts, stabilizers, preservatives, NAD^+, and glucose-6-phosphate. Enzyme conjugate DAMP-Y-S-G6PDH is added into the conjugate diluent to prepare the enzyme conjugate reagent. The enzyme conjugate reagent includes the conjugate, buffer, stabilizers, salts, and preservatives.
A clinical chemistry analyzer useful to evaluate antibodies and enzyme conjugates in a homogeneous enzyme immunoassay format is the Beckman Coulter AU480 (Beckman Coulter, Brea, CA). The Beckman AU480 is an automated biochemistry spectrophotometer analyzer used by medical laboratories to process biological fluid specimens, such as urine, cerebrospinal fluid, oral fluids, plasma and serum. The analyzer is capable of maintaining a constant temperature, pipetting samples, mixing reagents, measuring light absorbance and timing the reaction accurately.
A homogeneous enzyme immunoassay is conducted using a liquid, ready-to-use, two reagent assay as described above. Typically, 2-15 μL MTX analyte-containing sample is incubated with 75-150 μL antibody reagent followed by the addition of the 50-100 μL enzyme conjugate reagent.
The assay is a homogeneous enzyme immunoassay technique used for the analysis of MTX in biological fluids. The assay is based on competition between MTX in the specimen and -MTX or MTX analog (DAMP derivatives of the current invention) labeled with the enzyme glucose-6-phosphate dehydrogenase (G6PDH) for antibody binding sites. Enzyme activity decreases upon binding to the antibody, so the drug concentration in the sample can be measured in terms of enzyme activity. Active enzyme converts nicotinamide adenine dinucleotide (NAD^+) to NADH, resulting in an absorbance change that is measured spectrophotometrically at 340 nm. […] The change in the absorbance at 340 nm can be measured spectrophotometrically and is proportional to the enzyme conjugate activity which in turn is related to analyte concentration (see FIG. 14).
MTX analyte antibodies and enzyme conjugate (DAMP-Y-S-G6PDH) were used in a homogeneous assay format to generate calibration curves using MTX standards as described in Example 12. Antibody reagents were prepared as described in Example 8 through 11 using DAMP-Y-KLH generated rabbit antibodies and cloned antibodies through B-cell. Enzyme conjugate DAMP-Y-S-G6PDH was used to prepare the conjugate reagent. A 6-point calibration curve was generated on the Beckman AU480 clinical chemistry analyzer as described in Examples 12. […]

For the molecule `CN(Cc1cnc2nc(N)nc(N)c2n1)c1ccc(C(=O)O)cc1` [DAMPA, 4-(((2,4-diaminopteridin-6-yl)methyl)(methyl)amino)benzoic acid], the “Apparent Conc.” value with MTX antibodies [1] (DAMPA 0.04 μmol/L in negative serum pool) was 0.023 µmol/L; with MTX antibodies [1] (DAMPA 0.10 μmol/L in negative serum pool), 0.052 µmol/L; in the test on MTX antibodies [1] (DAMPA 0.50 μmol/L in negative serum pool), 0.215 µmol/L; in the test with MTX antibodies [1] (DAMPA 0.80 μmol/L in negative serum pool) it was 0.187 µmol/L; with MTX antibodies [1] (DAMPA 1.00 μmol/L in negative serum pool), 0.188 µmol/L. Moreover, the “% Cross-reactivity” value worked out at 57.50% with MTX antibodies [1] (DAMPA 0.04 μmol/L); 51.50% with MTX antibodies [1] (DAMPA 0.10 μmol/L); 42.93% in the test on MTX antibodies [1] (DAMPA 0.50 μmol/L); 23.42% in the test with MTX antibodies [1] (DAMPA 0.80 μmol/L); 18.80% in the test on MTX antibodies [1] (DAMPA 1.00 μmol/L).
With `Nc1nc(N)c2nc(-c3ccccc3)c(N)nc2n1` [Triamterene], in the test on MTX antibodies [2], the “No MTX Mean” value is 0.009 µmol/L and the “% Cross-reactivity” value is 0.03%.
The corresponding values for `COc1cc(Cc2cnc(N)nc2N)cc(OC)c1OC` [Trimethoprim] are 0.000 µmol/L and 0.00%.

B1: 32H1/32K2: rabbit recombinant monoclonal antibody to MTX, VH SEQ ID NO: 9, VL SEQ ID NO: 13 (antibody)
VH: METGLRWLLLVAVLKGVQCQSLEESGGDLVKPGASLTLTCTASGLSFSSSDHWICWVRQAPGKGLESVGCIYIGSGTFVSSGTTYFASWAKGRSIISKTSSTTVTLQMTSLTAADTATYFCARGFYYTDGSGGPSYLNLWGQGTLVTVSSGQPKAPSVFPLAPCCGDTPSSTVTLGCLVKGYLPEPVTVTWNSGTLTNGVRTFPSVRQSSGLYSLSSVVSVTSSSQPVTCNVAHPATNTKVDKTVAPSTCSKPTCPPPELLGGPSVFIFPPKPKDTLMISRTPEVTCVVVDVSQDDPEVQFTWYINNEQVRTARPPLREQQFNSTIRVVSTLPITHQDWLRGKEFKCKVHNKALPAPIEKTISKARGQPLEPKVYTMGPPREELSSRSVSLTCMINGFYPSDISVEWEKNGKAEDNYKTTPAVLDSDGSYFLYNKLSVPTSEWQRGDVFTCSVMHEALHNHYTQKSISRSPGK
VL: MDTRAPTQLLGLLLLWLPGARCADIVMTQTPASVEAAVGGTVTIKCQASQTIYSYLSWFQQKPGQPPKLLIYSASTLASGVSSRFKGSRSGTESTLTISDLECADAATYYCQSYMYSSSSSFGSTFGGGTEVVVKGDPVAPTVLIFPPAADQVATGTVTIVCVANKYFPDVTVTWEVDGTTQTTGIENSKTPQNSADCTYNLSSTLTLTSTQYNSHKEYTCKVTQGTTSVVQSFNRGDC
Take B1: the Separation is 103.5 ΔmA/min in test [3] (0.00 to 0.05 μM); 209.7 ΔmA/min in test [3] (0.00 to 1.20 μM); 105.7 ΔmA/min in test [3] (0.05 to 0.15 μM); −0.9 ΔmA/min in test [3] (0.25 to 0.50 μM); 0.3 ΔmA/min in test [3] (0.50 to 1.20 μM). Also, the Absorbance in test [3] (Cals 0.00 μM) is 0.4007 and 0.3982; in test [3] (Cals 0.05 μM) it was 0.5023 and 0.5035; in test [3] (Cals 0.15 μM), 0.6091 and 0.6080; in test [3] (Cals 0.50 μM) it was 0.6084 and 0.6093; in test [3] (Cals 1.20 μM) it was 0.6108 and 0.6075. Also, the “Average Rate” value worked out at 399.45 mA/min in test [3] (Cals 0.00 μM); 502.90 mA/min in test [3] (Cals 0.05 μM); 608.55 mA/min in test [3] (Cals 0.15 μM); 608.85 mA/min in test [3] (Cals 0.50 μM); 609.15 mA/min in test [3] (Cals 1.20 μM).
